Assay results taken from article PMC6981877, “Conformational Plasticity of the Active Site Entrance in E. coli Aspartate Transcarbamoylase and Its Implication in Feedback Regulation” (International Journal of Molecular Sciences, 2020).

Target: the molecule itself
Test: crystal structure; native wild-type apo holoenzyme extracted from E. coli BL21(DE3); hanging drop, 0.1 M MES pH 6.0, 10% glycerol, 10% PEG 8000; space group R32, one catalytic and one regulatory chain in the asymmetric unit; 2.06 Å

B1: E. coli aspartate transcarbamoylase (ATCase) catalytic chain (enzyme, E. coli (endogenous in BL21(DE3)), UniProt P0A786 1-311, looked up)
chain: MANPLYQKHIISINDLSRDDLNLVLATAAKLKANPQPELLKHKVIASCFFEASTRTRLSFETSMHRLGASVVGFSDSANTSLGKKGETLADTISVISTYVDAIVMRHPQEGAARLATEFSGNVPVLNAGDGSNQHPTQTLLDLFTIQETQGRLDNLHVAMVGDLKYGRTVHSLTQALAKFDGNRFYFIAPDALAMPQYILDMLDEKGIAWSLHSSIEEVMAEVDILYMTRVQKERLDPSEYANVKAQFVLRASDLHNAKANMKVLHPLPRVDEIATDVDKTPHAWYFQQAGNGIFARQALLALVLNRDLVL
notes: Aspartate transcarbamoylase catalytic chain, E. coli, wild type, native form lacking the His tag; Crystallised as part of the native holoenzyme; also called catalytic subunit; source: endogenous, extracted from E. coli BL21(DE3), purified as native holoenzyme (Ni-NTA, HiLoad Superdex 200)
B1: binds.

B2: E. coli aspartate transcarbamoylase (ATCase) regulatory chain (natural protein, E. coli (endogenous in BL21(DE3)), UniProt P0A7F3 1-153, looked up)
chain: MTHDNKLQVEAIKRGTVIDHIPAQIGFKLLSLFKLTETDQRITIGLNLPSGEMGRKDLIKIENTFLSEDQVDQLALYAPQATVNRIDNYEVVGKSRPSLPERIDNVLVCPNSNCISHAEPVSSSFAVRKRANDIALKCKYCEKEFSHNVVLAN
notes: Aspartate transcarbamoylase regulatory chain, E. coli, wild type, native; also called regulatory subunit; source: endogenous, extracted from E. coli BL21(DE3), purified as native holoenzyme (Ni-NTA, HiLoad Superdex 200)
B2: binds.
